Experimental data from patent publication US20210244739A1.

Target: human protein kinase R (PKR) (human) (UniProt P19525)
Test: cell-based or functional assay

Sequence of UniProt P19525 (P19525 2-551 limits assumed): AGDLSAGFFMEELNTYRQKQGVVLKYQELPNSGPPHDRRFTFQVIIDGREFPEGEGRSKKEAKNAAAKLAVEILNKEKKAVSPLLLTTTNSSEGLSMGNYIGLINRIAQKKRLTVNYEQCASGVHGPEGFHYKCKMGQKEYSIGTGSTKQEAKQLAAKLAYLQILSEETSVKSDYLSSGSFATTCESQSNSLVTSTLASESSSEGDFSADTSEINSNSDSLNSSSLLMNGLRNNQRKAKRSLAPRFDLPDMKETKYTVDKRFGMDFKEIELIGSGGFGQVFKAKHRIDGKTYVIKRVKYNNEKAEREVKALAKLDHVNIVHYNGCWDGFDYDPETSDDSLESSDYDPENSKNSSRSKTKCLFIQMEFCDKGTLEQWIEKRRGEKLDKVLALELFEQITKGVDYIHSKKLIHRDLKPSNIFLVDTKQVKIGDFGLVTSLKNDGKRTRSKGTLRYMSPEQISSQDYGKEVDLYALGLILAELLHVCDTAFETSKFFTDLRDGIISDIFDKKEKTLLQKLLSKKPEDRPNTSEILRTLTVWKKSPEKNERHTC

Substance	virus titre increase between 5 hpi and 48 hpi in HeLa cells
sheeppox virus 011 (K3 ortholog)	> 10 fold
taterapox virus 037 (K3 ortholog)	> 10 fold
